{"source": "paper PMC3735830", "about": "(Nature structural & molecular biology, 2013)", "binders": {"B1": {"name": "Cdt1 (natural protein)", "chain": "MSGTANSRRKEVLRVPVIDLNRVSDEEQLLPVVRAILLQHDTFLLKNYANKAVLDALLAGLTTKDLPDTSQGFDANFTGTLPLEDDVWLEQYIFDTDPQLRFDRKCRNESLCSIYSRLFKLGLFFAQLCVKSVVSSAELQDCISTSHYATKLTRYFNDNGSTHDGADAGATVLPTGDDFQYLFERDYVTFLPTGVLTIFPCAKAIRYKPSTMATTDNSWVSIDEPDCLLFHTGTLLARWSQGMHTTSPLQIDPRANIVSLTIWPPLTTPISSKGEGTIANHLLEQQIKAFPKVAQQYYPRELSILRLQDAMKFVKELFTVCETVLSLNALSRSTGVPPELHVLLPQISSMMKRKIVQDDILKLLTIWSDAYVVELNSRGELTMNLPKRDNLTTLTNKSRTLAFVERAESWYQQVIASKDEIMTDVPAFKINKRRSSSNSKTVLSSKVQTKSSNANALNNSRYLANSKENFMYKEKMPDSQANLMDRLRERERRSAALLSQRQKRYQQFLAMKMTQVFDILFSLTRGQPYTETYLSSLIVDSLQDSNNPIGTKEASEILAGLQGILPMDISVHQVDGGLKVYRWNSLDKNRFSKLLQIHKSKQQD"}, "B2": {"name": "Mcm7 (natural protein)", "chain": "MSAALPSIQLPVDYNNLFNEITDFLVTFKQDTLSSDATRNENEDENLDAENIEQHLLEKGPKYMAMLQKVANRELNSVIIDLDDILQYQNEKFLQGTQADDLVSAIQQNANHFTELFCRAIDNNMPLPTKEIDYKDDVLDVILNQRRLRNERMLSDRTNEIRSENLMDTTMDPPSSMNDALREVVEDETELFPPNLTRRYFLYFKPLSQNCARRYRKKAISSKPLSVRQIKGDFLGQLITVRGIITRVSDVKPAVEVIAYTCDQCGYEVFQEVNSRTFTPLSECTSEECSQNQTKGQLFMSTRASKFSAFQECKIQELSQQVPVGHIPRSLNIHVNGTLVRSLSPGDIVDVTGIFLPAPYTGFKALKAGLLTETYLEAQFVRQHKKKFASFSLTSDVEERVMELITSGDVYNRLAKSIAPEIYGNLDVKKALLLLLVGGVDKRVGDGMKIRGDINVCLMGDPGVAKSQLLKAICKISPRGVYTTGKGSSGVGLTAAVMKDPVTDEMILEGGALVLADNGICCIDEFDKMDESDRTAIHEVMEQQTISISKAGINTTLNARTSILAAANPLYGRYNPRLSPLDNINLPAALLSRFDILFLMLDIPSRDDDEKLAEHVTYVHMHNKQPDLDFTPVEPSKMREYIAYAKTKRPVMSEAVNDYVVQAYIRLRQDSKREMDSKFSFGQATPRTLLGIIRLSQALAKLRLADMVDIDDVEEALRLVRVSKESLYQETNKSKEDESPTTKIFTIIKKMLQETGKNTLSYENIVKTVRLRGFTMLQLSNCIQEYSYLNVWHLINEGNTLKFVDDGTMDTDQEDSLVSTPKLAPQTTASANVSAQDSDIDLQDA"}, "B3": {"name": "Orc4 (natural protein)", "chain": "MTISEARLSPQVNLLPIKRHSNEEVEETAAILKKRTIDNEKCKDSDPGFGSLQRRLLQQLYGTLPTDEKIIFTYLQDCQQEIDRIIKQSIIQKESHSVILVGPRQSYKTYLLDYELSLLQQSYKEQFITIRLNGFIHSEQTAINGIATQLEQQLQKIHGSEEKIDDTSLETISSGSLTEVFEKILLLLDSTTKTRNEDSGEVDRESITKITVVFIFDEIDTFAGPVRQTLLYNLFDMVEHSRVPVCIFGCTTKLNILEYLEKRVKSRFSQRVIYMPQIQNLDDMVDAVRNLLTVRSEISPWVSQWNETLEKELSDPRSNLNRHIRMNFETFRSLPTLKNSIIPLVATSKNFGSLCTAIKSCSFLDIYNKNQLSNNLTGRLQSLSDLELAILISAARVALRAKDGSFNFNLAYAEYEKMIKAINSRIPTVAPTTNVGTGQSTFSIDNTIKLWLKKDVKNVWENLVQLDFFTEKSAVGLRDNATAAFYASNYQFQGTMIPFDLRSYQMQIILQELRRIIPKSNMYYSWTQL"}, "B4": {"name": "Cdc6 (natural protein)", "chain": "MSAIPITPTKRIRRNLFDDAPATPPRPLKRKKLQFTDVTPESSPEKLQFGSQSIFLRTKALLQKSSELVNLNSSDGALPARTAEYEQVMNFLAKAISEHRSDSLYITGPPGTGKTAQLDMIIRQKFQSLPLSLSTPRSKDVLRHTNPNLQNLSWFELPDGRLESVAVTSINCISLGEPSSIFQKIFDSFQDLNGPTLQIKNMQHLQKFLEPYHKKTTFVVVLDEMDRLLHANTSETQSVRTILELFLLAKLPTVSFVLIGMANSLDMKDRFLSRLNLDRGLLPQTIVFQPYTAEQMYEIVIQKMSSLPTIIFQPMAIKFAAKKCAGNTGDLRKLFDVLRGSIEIYELEKRFLLSPTRGSLNSAQVPLTPTTSPVKKSYPEPQGKIGLNYIAKVFSKFVNNNSTRTRIAKLNIQQKLILCTIIQSLKLNSDATIDESFDHYIKAITKTDTLAPLQRNEFLEICTILETCGLVSIKKTKCKGKTKRFVDKIDVDLDMREFYDEMTKISILKPFLH"}}, "key": {"[1]": {"target": "Mcm6 (S. cerevisiae, UniProt P53091 1-1017)", "sequence (P53091 whole entry)": "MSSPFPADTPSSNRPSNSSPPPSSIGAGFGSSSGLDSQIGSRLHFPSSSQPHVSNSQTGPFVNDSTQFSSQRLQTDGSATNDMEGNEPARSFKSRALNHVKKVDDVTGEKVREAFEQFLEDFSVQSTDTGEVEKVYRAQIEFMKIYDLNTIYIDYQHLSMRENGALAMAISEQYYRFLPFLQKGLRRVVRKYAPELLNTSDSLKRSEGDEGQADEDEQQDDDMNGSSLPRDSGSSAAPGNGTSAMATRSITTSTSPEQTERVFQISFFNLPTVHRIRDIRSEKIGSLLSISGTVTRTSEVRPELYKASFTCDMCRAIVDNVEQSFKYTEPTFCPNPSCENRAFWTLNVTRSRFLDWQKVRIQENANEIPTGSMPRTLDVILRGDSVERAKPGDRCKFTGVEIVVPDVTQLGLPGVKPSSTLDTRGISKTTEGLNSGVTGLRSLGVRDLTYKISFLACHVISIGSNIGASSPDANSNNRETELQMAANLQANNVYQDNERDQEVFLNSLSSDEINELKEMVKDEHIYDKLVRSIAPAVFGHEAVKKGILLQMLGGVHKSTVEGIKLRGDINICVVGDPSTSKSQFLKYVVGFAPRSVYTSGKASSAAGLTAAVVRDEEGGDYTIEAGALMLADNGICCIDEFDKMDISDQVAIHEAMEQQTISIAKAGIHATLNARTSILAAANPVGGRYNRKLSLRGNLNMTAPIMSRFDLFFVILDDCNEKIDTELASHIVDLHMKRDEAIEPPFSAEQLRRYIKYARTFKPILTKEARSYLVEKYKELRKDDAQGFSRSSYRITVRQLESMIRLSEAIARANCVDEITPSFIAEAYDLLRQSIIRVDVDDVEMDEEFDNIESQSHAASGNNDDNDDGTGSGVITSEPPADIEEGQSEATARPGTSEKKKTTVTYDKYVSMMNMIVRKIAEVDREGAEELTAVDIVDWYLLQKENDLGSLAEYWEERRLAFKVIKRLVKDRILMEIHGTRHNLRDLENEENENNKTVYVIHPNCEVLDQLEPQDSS", "assay": "cryo-EM structure"}, "[2]": {"target": "T1, Mcm2 (S. cerevisiae, UniProt P29469 1-868)", "T1 sequence": "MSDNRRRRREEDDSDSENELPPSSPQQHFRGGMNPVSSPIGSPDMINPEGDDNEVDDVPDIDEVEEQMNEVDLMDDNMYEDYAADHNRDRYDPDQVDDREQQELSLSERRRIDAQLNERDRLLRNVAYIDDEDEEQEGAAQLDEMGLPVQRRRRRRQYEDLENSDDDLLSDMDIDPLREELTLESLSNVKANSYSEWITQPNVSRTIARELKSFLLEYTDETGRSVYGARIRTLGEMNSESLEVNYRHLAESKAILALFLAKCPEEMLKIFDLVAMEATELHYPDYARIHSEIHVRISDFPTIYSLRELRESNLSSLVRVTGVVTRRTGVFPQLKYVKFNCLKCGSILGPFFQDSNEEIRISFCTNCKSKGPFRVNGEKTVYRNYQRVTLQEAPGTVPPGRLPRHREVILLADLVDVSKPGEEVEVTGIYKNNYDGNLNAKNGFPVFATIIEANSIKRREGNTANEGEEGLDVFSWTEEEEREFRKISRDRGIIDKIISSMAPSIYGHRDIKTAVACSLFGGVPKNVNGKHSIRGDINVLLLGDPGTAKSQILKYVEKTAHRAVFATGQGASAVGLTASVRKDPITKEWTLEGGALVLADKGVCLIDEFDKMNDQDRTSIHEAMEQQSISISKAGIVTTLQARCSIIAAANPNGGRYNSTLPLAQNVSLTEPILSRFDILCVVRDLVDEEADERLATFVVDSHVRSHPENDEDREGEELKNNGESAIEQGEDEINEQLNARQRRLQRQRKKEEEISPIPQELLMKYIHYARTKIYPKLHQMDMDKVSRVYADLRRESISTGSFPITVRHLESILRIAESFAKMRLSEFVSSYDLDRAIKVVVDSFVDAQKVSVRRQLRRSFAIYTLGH", "assay": "co-IP"}, "[3]": {"target": "T2, Mcm4 (S. cerevisiae, UniProt P30665 1-933)", "T2 sequence": "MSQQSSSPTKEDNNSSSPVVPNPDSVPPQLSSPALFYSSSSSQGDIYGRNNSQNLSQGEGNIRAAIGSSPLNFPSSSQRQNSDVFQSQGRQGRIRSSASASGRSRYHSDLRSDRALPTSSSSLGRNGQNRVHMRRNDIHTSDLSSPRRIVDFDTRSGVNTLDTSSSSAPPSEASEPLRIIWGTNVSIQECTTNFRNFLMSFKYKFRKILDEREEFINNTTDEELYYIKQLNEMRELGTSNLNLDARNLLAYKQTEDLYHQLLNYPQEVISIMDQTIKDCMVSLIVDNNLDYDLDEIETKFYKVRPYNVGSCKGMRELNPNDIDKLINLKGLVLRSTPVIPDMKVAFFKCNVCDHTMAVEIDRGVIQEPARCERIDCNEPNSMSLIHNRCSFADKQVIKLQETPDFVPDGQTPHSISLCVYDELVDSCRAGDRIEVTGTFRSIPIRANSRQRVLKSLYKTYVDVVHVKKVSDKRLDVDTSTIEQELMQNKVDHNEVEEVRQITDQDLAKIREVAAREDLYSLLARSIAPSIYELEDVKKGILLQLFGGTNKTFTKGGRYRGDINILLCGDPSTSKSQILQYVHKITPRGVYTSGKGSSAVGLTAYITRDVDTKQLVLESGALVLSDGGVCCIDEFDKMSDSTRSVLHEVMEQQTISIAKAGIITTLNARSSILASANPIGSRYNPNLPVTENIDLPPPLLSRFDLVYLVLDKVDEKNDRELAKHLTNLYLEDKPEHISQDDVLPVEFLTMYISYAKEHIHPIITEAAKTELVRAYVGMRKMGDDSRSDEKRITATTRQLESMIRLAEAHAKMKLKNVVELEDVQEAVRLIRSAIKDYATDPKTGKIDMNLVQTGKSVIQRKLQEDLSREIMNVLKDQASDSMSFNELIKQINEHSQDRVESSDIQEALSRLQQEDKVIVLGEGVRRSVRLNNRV", "assay": "cryo-EM structure"}, "[4]": {"target": "Mcm3 (S. cerevisiae, UniProt P24279 1-971)", "sequence (P24279 whole entry)": "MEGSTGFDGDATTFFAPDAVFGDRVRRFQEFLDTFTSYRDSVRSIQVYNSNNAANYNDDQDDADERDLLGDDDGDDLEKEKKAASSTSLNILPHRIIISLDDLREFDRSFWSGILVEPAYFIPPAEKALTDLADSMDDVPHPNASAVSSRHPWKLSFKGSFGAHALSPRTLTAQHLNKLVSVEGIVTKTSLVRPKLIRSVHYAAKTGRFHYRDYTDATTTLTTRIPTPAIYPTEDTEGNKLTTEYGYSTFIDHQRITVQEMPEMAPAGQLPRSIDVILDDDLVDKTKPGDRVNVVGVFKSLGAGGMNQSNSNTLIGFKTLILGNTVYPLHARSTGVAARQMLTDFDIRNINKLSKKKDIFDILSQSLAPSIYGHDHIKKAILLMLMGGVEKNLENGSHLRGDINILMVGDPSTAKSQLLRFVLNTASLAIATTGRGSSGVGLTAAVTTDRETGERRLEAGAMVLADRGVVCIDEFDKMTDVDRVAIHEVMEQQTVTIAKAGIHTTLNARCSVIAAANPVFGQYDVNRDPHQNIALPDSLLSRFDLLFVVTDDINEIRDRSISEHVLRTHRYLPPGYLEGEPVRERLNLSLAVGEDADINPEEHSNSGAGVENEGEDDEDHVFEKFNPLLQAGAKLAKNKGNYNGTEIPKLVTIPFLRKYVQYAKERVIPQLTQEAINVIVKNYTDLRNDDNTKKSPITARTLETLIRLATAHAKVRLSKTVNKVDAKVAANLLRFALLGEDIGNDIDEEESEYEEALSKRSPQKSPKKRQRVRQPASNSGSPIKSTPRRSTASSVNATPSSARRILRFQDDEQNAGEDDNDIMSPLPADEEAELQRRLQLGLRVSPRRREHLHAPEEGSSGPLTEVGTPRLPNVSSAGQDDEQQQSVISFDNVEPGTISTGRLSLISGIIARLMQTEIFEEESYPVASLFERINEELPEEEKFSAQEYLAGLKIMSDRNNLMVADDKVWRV", "assay": "cryo-EM structure"}, "[5]": {"target": "T3, Orc1 (S. cerevisiae, UniProt P54784 1-914)", "T3 sequence": "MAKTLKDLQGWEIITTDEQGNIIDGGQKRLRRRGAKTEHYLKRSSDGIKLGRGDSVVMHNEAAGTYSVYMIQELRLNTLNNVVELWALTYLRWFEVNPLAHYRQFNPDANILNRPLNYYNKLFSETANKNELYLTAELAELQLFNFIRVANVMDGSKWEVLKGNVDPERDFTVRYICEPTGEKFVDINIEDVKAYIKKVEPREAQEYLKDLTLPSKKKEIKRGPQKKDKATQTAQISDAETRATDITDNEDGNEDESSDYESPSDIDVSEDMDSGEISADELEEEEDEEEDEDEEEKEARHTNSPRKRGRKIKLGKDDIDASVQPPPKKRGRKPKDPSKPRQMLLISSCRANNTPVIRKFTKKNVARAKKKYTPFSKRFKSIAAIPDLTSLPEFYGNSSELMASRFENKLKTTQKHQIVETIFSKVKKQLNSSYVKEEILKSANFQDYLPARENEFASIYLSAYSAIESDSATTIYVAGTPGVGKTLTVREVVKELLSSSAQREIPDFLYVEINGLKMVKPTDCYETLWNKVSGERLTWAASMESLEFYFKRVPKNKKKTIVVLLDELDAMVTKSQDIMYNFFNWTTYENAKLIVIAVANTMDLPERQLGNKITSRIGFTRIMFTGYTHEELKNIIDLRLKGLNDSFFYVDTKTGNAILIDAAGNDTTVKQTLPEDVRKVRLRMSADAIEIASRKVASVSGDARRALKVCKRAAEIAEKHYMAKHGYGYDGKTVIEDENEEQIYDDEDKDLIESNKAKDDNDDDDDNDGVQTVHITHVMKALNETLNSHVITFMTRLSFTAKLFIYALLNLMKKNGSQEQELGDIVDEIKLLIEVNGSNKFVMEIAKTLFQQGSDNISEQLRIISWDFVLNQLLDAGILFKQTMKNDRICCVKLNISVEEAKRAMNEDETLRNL", "assay": "cryo-EM structure"}, "[6]": {"target": "T4, Orc3 (S. cerevisiae, UniProt P54790 1-616)", "T4 sequence": "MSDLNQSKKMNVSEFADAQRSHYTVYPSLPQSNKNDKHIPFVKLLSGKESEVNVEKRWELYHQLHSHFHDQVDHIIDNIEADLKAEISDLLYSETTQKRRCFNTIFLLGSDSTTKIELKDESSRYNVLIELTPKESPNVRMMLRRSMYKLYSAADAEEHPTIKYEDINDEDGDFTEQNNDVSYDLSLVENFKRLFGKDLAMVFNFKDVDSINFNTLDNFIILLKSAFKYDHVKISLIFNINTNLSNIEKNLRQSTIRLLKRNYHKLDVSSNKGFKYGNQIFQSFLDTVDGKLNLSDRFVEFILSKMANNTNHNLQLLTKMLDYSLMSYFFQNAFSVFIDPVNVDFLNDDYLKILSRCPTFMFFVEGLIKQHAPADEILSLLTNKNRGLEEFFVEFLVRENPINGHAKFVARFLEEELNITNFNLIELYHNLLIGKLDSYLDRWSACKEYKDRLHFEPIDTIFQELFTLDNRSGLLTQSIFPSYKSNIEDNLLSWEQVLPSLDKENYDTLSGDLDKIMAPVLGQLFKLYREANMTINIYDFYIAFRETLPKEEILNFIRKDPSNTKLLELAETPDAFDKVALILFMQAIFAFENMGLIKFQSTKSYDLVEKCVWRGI", "assay": "cryo-EM structure"}}, "data": [{"binder": "B1", "values": [{"measurement": "binding result", "setting": "[1]", "value": "binds"}]}, {"binder": "B2", "values": [{"measurement": "binding result", "setting": "[2]", "value": "binds"}, {"measurement": "binding result", "setting": "[3]", "value": "binds"}, {"measurement": "binding result", "setting": "[4]", "value": "binds"}]}, {"binder": "B3", "values": [{"measurement": "binding result", "setting": "[5]", "value": "binds"}]}, {"binder": "B4", "values": [{"measurement": "binding result", "setting": "[5]", "value": "binds"}, {"measurement": "binding result", "setting": "[6]", "value": "binds"}]}]}
